Molecular target: IL-11 (UniProt P20809)
Assay: ELISA on IL-11, positive control antibody ab130083

IL-11, sequence (P20809 22-199 limits assumed): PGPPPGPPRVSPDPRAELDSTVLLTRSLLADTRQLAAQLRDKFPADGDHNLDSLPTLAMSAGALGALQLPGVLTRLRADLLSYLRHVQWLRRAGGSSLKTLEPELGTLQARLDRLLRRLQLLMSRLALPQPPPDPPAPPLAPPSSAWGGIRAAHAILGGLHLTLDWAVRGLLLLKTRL

6D9A1 (Abcam, ab130083) (antibody)
OD(450 nm) value: 3.62 OD450

Source: patent US20250002574A1
